B1: monoclonal antibody L4.65 (antibody, V domains shown)
VH: QITLKESGPTLVKPTQTLTLTCTFSGFSLSTSGVGVAWIRQPPGKALEWLALIYWDNDKRSSPSLNNRLTITKDTSKNQVVLTMTNMDPEDTATYYCAHFFSHYDSSNYYYGSWFDPWGQGTLVTVSS
VL: EIVLTQSPGTLSLSPGERATLSCRASQSFDSRYLGWYQQKSGQAPRLLIYGASSRATGIPDRFSGSGSGTDFTLTISRLEPEDFAVYYCQQFGDSPFTFGQGTKLEIKR
notes: also called monoclonal antibody 65; 65IgG
B2: monoclonal antibody CoV56 (antibody, V domains shown)
VH: EVQLVESGGGVVQPGGSLRLSCAVSGFTFDDYAMHWVRQAPGKGLDWVSLISGDGSYTYYADSVKGRFTISRDSSKNSLYLQMNSLRTEDTALYYCAKAQTPTLWWLQDAFDIWGQGTMVTVSS
VL: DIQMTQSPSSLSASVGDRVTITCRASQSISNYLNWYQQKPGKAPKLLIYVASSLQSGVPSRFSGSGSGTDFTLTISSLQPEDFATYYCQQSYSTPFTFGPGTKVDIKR
notes: also called monoclonal antibody 56; 56IgG

Legend:
[1] = target: T1, S protein of the SARS-CoV-2 prototype strain on pseudo-virus (SARS-CoV-2 prototype strain, UniProt P0DTC2 14-1273); assay: cell-based or functional assay
[2] = target: T1, S protein of the SARS-CoV-2 prototype …; assay: cell-based or functional assay; remark: listed apart in the source
[3] = target: T2, RBD of the S protein of the 2019 original strain (2019-nCoV) (SARS-CoV-2 (2019-nCoV original strain), UniProt P0DTC2 319-541); assay: ELISA on plate-coated RBD (1 µg/mL), HRP anti-human Fc detection, OD450
T2 construct: domain: RBD; also called 2019-nCoV RBD; SARS-CoV-2 RBD

Row | Binder | Neutralization activity (IC50) against pseudo-virus [1] | Neutralization Effects (IC50) against SARS-CoV-2 pseudo-viruses [2] | EC50 [3]
1 | B1 | 0.97 ng/mL | 0.709 ng/mL | 0.0173 nM
2 | B2 | > 2000 ng/mL | 8380 ng/mL | 0.0418 nM
